Six compounds from article PMC3236213, “A Novel N-Acetylglutamate Synthase Architecture Revealed by the Crystal Structure of the Bifunctional Enzyme from Maricaulis maris” (PLoS ONE, 2011) can be followed below.

The target of test [1] is T1, mmNAGS/K (Maricaulis maris, UniProt Q0ASS9).
T1 construct: gene Mmar10_0365; full length (AAK domain 1-290, linker Gly291, NAT domain 292-441); E. coli Rosetta 2; homotetramer
T1 sequence (Q0ASS9 1-441): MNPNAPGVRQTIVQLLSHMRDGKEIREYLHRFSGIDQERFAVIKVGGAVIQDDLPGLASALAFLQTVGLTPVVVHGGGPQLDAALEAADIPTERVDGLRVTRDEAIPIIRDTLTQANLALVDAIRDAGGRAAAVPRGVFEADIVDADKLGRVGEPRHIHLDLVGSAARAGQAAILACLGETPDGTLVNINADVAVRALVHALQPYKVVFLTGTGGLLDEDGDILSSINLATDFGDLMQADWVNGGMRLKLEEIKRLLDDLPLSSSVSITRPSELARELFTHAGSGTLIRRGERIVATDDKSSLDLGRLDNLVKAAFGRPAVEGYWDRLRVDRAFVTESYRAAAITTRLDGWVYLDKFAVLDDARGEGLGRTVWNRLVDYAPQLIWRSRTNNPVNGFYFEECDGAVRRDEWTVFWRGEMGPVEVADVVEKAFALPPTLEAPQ
The test is described as follows: NAGS assay, NAG quantified by LC-MS. The format is biochemical. The note with it: allosteric inhibitor of NAGS activity, not of NAGK activity; 2.5 mM AcCoA, 10 mM L-glutamate, 50 mM Tris-HCl pH 8.5; 293 K in Methods, 310 K in Figure 1 legend.

Test [2] deals with T1, mmNAGS/K. The test is described as follows: X-ray crystallography (native, […] A). In kind it is binding. The note with it: modeled in residual density at NAT domain of subunits A and Y; 100 mM glutamate before crystallization; pH 6.5.
The target of test [3] is Maricaulis maris bifunctional N-acetylglutamate synthase/kinase (mmNAGS/K), wild type (Maricaulis maris MCS10). The test is described as follows: crystal structure; trigonal form P3(1)21 of native mmNAGS/K, 4.3 A, two subunits per asymmetric unit, molecular replacement with the A-X dimer; 23% PEG400, 100 mM Bis-Tris pH 6.5, 1 mM 5-amino-2,4,6-triiodoisophthalic acid.
Test [4] has the same target. The test is described as follows: crystal structure; orthorhombic form P2(1)2(1)2(1) of mmNAGS/K, four subunits per asymmetric unit; protein incubated beforehand with 25 mM CoA and 100 mM glutamate; native: 25% PEG3350, 200 mM NaCl, 100 mM Bis-Tris pH 6.5; Se-Met mutant: 25% PEG3350, 200 mM sodium malonate pH 7.0.
Test [5] shares this target. The test is described as follows: cross-linking; 0.15 ug protein with 0.25 ug dimethyl suberimidate in 50 ul of 200 mM triethanolamine pH 8.25, three hours at 298 K; SDS-PAGE (NuPAGE 4-12% Bis-Tris), Coomassie blue.
For test [6], the target named is Se-Met substituted mmNAGS/K triple mutant (I106M, I294M, L376M) (Maricaulis maris MCS10). The test is described as follows: crystal structure; orthorhombic form P2(1)2(1)2(1) of mmNAGS/K, four subunits per asymmetric unit; protein incubated beforehand with 25 mM CoA and 100 mM glutamate; native: 25% PEG3350, 200 mM NaCl, 100 mM Bis-Tris pH 6.5; Se-Met mutant: 25% PEG3350, 200 mM sodium malonate pH 7.0.

In test [7] the target is Se-Met substituted xcNAGS/K (hexagonal crystal form) (Xanthomonas campestris). The test is described as follows: crystal structure; hexagonal form P6(2)22 of Se-Met xcNAGS/K, one subunit per asymmetric unit, molecular replacement with mmNAGS/K; tetramer made by crystallographic symmetry.
Test [8] addresses Xanthomonas campestris bifunctional N-acetylglutamate synthase/kinase (xcNAGS/K), recombinant (Xanthomonas campestris). The test is described as follows: cross-linking; 0.15 ug protein with 0.25 ug dimethyl suberimidate in 50 ul of 200 mM triethanolamine pH 8.25, three hours at 298 K; SDS-PAGE (NuPAGE 4-12% Bis-Tris), Coomassie blue.

Take `N=C(N)NCCC[C@H](N)C(=O)O` [L-arginine]: the “fold inhibition of NAGS activity at 1.0 mM” value on mmNAGS/K [1] is recorded as 14 fold.

As to `N[C@@H](CCC(=O)O)C(=O)O` [L-glutamate], the “X-ray crystallography (native, 3.1 A)” value on mmNAGS/K [2] was “residual electron density in subunits A and Y at this site that can be modeled as L-glutamate”.

As to “Maricaulis maris bifunctional N-acetylglutamate synthase/kinase (mmNAGS/K), wild type (enzyme)”, the stoichiometry N in test [3], in test [4] and in test [5] was 4 throughout.

Consider “Se-Met substituted mmNAGS/K triple mutant (I106M, I294M, L376M) (enzyme)”, for which the stoichiometry N (in general, the number of molecules, sites or subunits per partner or assembly) in test [6] came to 4.

In test [7], “Se-Met substituted xcNAGS/K (hexagonal crystal form) (enzyme)” had a stoichiometry N of 4.

Consider “Xanthomonas campestris bifunctional N-acetylglutamate synthase/kinase (xcNAGS/K), recombinant (enzyme)”, for which the stoichiometry N in test [8] was found to be 4.
